Assay [1] addresses T1, human CLEC12a expressed on transiently transfected HEK 293 cells (human, UniProt Q5QGZ9 1-265).
T1 construct: also called CLL-1; CLL1
T1 sequence: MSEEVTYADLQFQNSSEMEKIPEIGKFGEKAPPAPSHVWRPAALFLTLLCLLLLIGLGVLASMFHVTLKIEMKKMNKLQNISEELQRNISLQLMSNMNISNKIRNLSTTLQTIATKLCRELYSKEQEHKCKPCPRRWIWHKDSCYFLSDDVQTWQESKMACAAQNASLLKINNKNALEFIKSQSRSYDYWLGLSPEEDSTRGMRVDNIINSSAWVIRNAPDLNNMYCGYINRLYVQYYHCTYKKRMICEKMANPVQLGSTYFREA
As to the kind of experiment: flow cytometry on HEK 293 cells transfected with human CLEC12a; apparent Kd, one-site fit. As to the method:
(§1) Binding of sdAbs to human CLEC12a was assessed by flow cytometry. […] HEK 293 cells were transiently transfected with a plasmid encoding CLEC12a (UniProt Accession No. Q5QGZ9.3; SEQ ID NO: 1) and used as the positive cell line, and untransfected HEK 293 cells were used as CLEC12a-negative cells. Each cell type was plated at 30,000 cells/well in FACS buffer (PBS 1% BSA, 0.1% NaN₃ pH 7.4) on a 96-well round-bottom plate. The sdAbs were diluted in FACS buffer in a 3-fold, 11 point serial dilution. The sdAb dilutions were added to the plated cells, and assay plates were incubated for 30 minutes at 4° C. After washing twice in 150 μL of FACS buffer, cells in each well were resuspended in 100 μL of 1:2000 Alexa Fluor 647-conjugated Anti-Human IgG secondary diluted in FACS buffer and incubated at 4° C. for 30 minutes. The cells were washed twice more, then bound antibody was detected by flow cytometry.
(§2) Flow cytometric analysis was performed on an Intellicyte iQue Plus and fluorescence was plotted as median fluorescence intensity. The apparent affinity (Kd, nM) was determined using one site binding non-linear regression in PRISM graph software.

Assay [2] has as its target T2, mFc-CLEC12a-ECD (human).
T2 construct: It was immobilized on anti-mFc capture sensors for BLI; also called CLEC12a antigen
T2 chain: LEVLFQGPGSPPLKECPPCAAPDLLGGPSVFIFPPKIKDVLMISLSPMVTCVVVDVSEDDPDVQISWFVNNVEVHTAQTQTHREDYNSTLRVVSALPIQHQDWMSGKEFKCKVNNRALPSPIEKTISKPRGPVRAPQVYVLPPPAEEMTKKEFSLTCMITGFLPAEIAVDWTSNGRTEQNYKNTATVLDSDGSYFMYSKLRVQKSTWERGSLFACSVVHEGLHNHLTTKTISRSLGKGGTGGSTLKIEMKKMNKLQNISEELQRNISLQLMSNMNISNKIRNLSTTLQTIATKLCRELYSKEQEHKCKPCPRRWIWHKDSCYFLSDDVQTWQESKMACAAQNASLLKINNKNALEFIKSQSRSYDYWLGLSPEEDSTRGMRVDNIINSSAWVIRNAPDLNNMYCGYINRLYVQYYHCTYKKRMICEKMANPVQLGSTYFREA
As to the kind of experiment: BLI, mFc-CLEC12a-ECD on anti-mFc sensors first loaded with 100 nM hzMB11v13, then 100 nM second sdAb. As to the method:
(§3) The epitopes of single domain antibodies (sdAbs) that comprise VHH domains that bind CLEC12a were compared using Bio-Layer Interferometry. 7 μg/mL of mFc-CLEC12a-ECD (SEQ ID NO: 87) was immobilized on anti-mFc coated capture sensors. 100 nM of one sdAb was then loaded onto the CLEC12a antigen and allowed to come to equilibrium. The sensors were then transferred into 100 nM of a second sdAb.
In general terms: BLI is a label-free optical method that tracks binding on a fibre tip over time.

For assay [3], the target named is T1, human CLEC12a expressed on transiently …. As to the kind of experiment: flow cytometry on HEK 293 cells transiently transfected with human CLEC12a, Alexa Fluor 647 anti-human IgG secondary, median fluorescence. As to the method: as §1, §2
(In general: In flow cytometry, cells or beads pass a laser one at a time.)

Assay [4] has as its target T2, mFc-CLEC12a-ECD. As to the kind of experiment: BLI, mFc-CLEC12a-ECD captured on anti-mFc sensors, 100 nM sdAb as first sdAb. As to the method: as §3

B1: hzME02v4 sdAb (VHH hzME02v4 fused to human IgG1 xELL Fc) (Fc fusion)
chain: EVQLVESGGGEVQPGGSLRLSCAASGRTFEYDDMVWFRQAPGKEREEVAGISWSGGSIYYAESVKGRFSISRDNAKNTVYLEMNRLKPEDTAVYYCNVGSYWGQGTLVTVDKTHTCPPCPAPGGPSVFLFPPKPKDTLMISRTPEVTCVVVDVSHEDPEVKFNWYVDGVEVHNAKTKPREEQYNSTYRVVSVLTVLHQDWLNGKEYKCKVSNKALPAPIEKTISKAKGQPREPQVYTLPPSRDELTKNQVSLTCLVKGFYPSDIAVEWESNGQPENNYKTTPPVLDSDGSFFLYSKLTVDKSRWQQGNVFSCSVMHEALHNHYTQKSLSLSPGK
notes: Humanized version of ME02; No linker is stated; also called hzME02v4-IgG1
By EC50 (read off the curve) is commonly meant the concentration giving half of the maximal effect. Low values mean a more potent agent, high ones a less potent agent. In the case of B1, the Kd in assay [1] was 0.87 nM. Also, the binding result in the assay with mFc-CLEC12a-ECD [2] is “binds”. Also, the “EC50 (read off the curve)” value in assay [3] is around 0.8 nM.

B2: hzMB11v13 sdAb (VHH hzMB11v13 fused to human IgG1 xELL Fc) (Fc fusion)
chain: EVQLVESGGGEVQPGGSLRLSCAASGFLFSIYDMNWYRQAPGKEREWVAGITNNGYSTAYAESVKGRFTISRDNAKNTIYLQMSSLRAEDTAVYYCHADLTKAYDVEYAWGQGTLVTVDKTHTCPPCPAPGGPSVFLFPPKPKDTLMISRTPEVTCVVVDVSHEDPEVKFNWYVDGVEVHNAKTKPREEQYNSTYRVVSVLTVLHQDWLNGKEYKCKVSNKALPAPIEKTISKAKGQPREPQVYTLPPSRDELTKNQVSLTCLVKGFYPSDIAVEWESNGQPENNYKTTPPVLDSDGSFFLYSKLTVDKSRWQQGNVFSCSVMHEALHNHYTQKSLSLSPGK
notes: Humanized version of MB11; No linker is stated; also called hzMB11v13-IgG1
Turning to B2, the Kd in assay [1] came to 0.3 nM. For the same molecule, in the assay with mFc-CLEC12a-ECD [4], the binding result is “binds”.

The values are drawn from patent US20200347139A1 (INHIBRX BIOSCIENCES, published 2020).
